Measured values from PMC6733591.

T1: ScRNase PNK (Las1-Grc3 complex) (Saccharomyces cerevisiae, UniProt P36146;Q07845 1-502;1-632)
T1 sequence 1: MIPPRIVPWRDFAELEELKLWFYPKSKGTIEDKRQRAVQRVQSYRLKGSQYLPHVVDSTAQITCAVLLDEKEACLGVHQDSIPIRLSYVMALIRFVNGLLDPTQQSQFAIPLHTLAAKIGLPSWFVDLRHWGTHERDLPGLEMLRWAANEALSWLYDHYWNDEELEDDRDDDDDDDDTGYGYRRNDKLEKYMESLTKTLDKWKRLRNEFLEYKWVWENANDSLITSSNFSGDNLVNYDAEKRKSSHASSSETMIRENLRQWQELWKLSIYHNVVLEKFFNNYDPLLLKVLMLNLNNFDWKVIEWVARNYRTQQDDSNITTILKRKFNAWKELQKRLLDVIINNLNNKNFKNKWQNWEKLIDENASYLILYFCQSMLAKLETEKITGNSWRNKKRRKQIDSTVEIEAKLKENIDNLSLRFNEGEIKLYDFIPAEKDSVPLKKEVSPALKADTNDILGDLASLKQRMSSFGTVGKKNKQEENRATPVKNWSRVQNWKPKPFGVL
T1 sequence 2: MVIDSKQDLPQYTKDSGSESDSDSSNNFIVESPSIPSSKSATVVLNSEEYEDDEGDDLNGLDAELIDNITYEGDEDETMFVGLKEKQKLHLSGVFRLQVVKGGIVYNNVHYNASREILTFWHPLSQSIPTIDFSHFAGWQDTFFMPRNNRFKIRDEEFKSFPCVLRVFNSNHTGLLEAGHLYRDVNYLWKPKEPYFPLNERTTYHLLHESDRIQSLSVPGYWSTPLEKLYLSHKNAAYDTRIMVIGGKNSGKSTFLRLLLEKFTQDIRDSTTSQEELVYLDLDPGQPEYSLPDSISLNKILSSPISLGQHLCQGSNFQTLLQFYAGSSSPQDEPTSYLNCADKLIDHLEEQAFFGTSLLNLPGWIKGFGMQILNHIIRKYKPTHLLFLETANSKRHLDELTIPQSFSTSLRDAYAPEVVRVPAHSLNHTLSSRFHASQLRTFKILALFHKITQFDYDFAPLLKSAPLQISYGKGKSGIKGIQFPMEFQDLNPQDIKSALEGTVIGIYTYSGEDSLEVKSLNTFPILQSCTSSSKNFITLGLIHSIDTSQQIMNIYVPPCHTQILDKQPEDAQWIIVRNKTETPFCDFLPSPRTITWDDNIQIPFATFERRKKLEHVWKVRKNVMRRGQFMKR


Columns and labels:
[1] = biological target: Chaetomium thermophilum Las1 endoribonuclease (nuclease component of RNase PNK) (Chaetomium thermophilum); test: cryo-EM structure
[2] = biological target: T1, ScRNase PNK (Las1-Grc3 complex); test: ITC

| stoichiometry N [1] | Molecule | binding result [2] |
| --- | --- | --- |
| 2 | Chaetomium thermophilum Las1 endoribonuclease (nuclease component of RNase PNK) (enzyme) | – |
| – | ACGUACGCGGAAUACUUCGAA (ssRNA) [SS-RNA] | binds |
| – | SC-ITS2-cleaved-RNA (SC-ITS2-3-RNA annealed to SC-ITS2-5-RNA) (dsRNA) RNA 1: GUCGUUUUA RNA 2: GGUUUUACCAACUGCGGC | binds |
